The values that follow come from patent US6043072A, “Nucleic acids encoding Taxus geranylgeranyl diphosphate synthase, and methods of use” (Washington State University Research Foundation, priority 1998, dated 2000).

The nature of data set [1]: Prenyltransferase assay of extracts of yeast expressing the GGPP synthase constructs, with product analysis by radio-TLC. The format is biochemical, Taxus canadensis. How it is done:
The standard assay for prenyltransferase activities was performed with 21 mg protein in a total volume of 100 ml of the extraction/assay buffer disclosed in Example 3. […] The reaction was quenched by the addition of 300 mil of methanol:conc. HCl (4:1, v/v), and the allylic diphosphate products were solvolyzed (50, 51) upon further incubation at 42° C. for 20 min. The resulting solvolysis products were extracted twice with 1 ml pentane, and were either analyzed by liquid scintillation counting (in toluene:ethanol (7:3, v/v) containing 0.4% Omnifluor (DuPont NEN); ^14 C counting efficiency=96.0%) or concentrated on ice under a gentle stream of Ar to […] for further analysis.
For radio-TLC analysis, samples were mixed with 10 mg each of geranylgeraniol (all trans), geranyllinalool (mixed geometric isomers), farnesol and geraniol and spotted on Whatman MKC 18F reversed phase plates that were developed with acetonitrile:acetone:water (15:4:1, v/v/v) and visualized with I2 vapor. Bands corresponding to the standards were scraped into scintillation vials for counting. For radio-GC analysis, the above pentane extract was diluted with 200 ml of an 8% ethereal solution of the internal standards before concentration on ice. Product identity was confirmed by radio-GC (Satterwhite, D. M. and Croteau, R. (1988) J. Chromatogr., 452:61-73) coincidence with the authentic standard on a 12 ft x 0.125 in. polydimethylsiloxane column (15% SE-30 on 80/100-mesh Chromasorb WHP; (Alltech, Inc., Nicholasville, Ky.), with He as carrier and temperature programming from 150° C. (1 min hold) to 240° C. (20 min hold) at 8° C./min.

The test system of data set [2] is ANY119, an S. cerevisiae mutant. The data set is described as follows: Complementation assay in yeast bet2-1 mutant. The format is cell-based. The following applies: 37° C.; SGI (3 d) and N3 (5 d).
Experimental: The pYeDP60 constructs were transformed into the S. cerevisiae mutant ANY119 using the lithium acetate procedure (Treco, D. (1989) in Current Protocols in Molecular Biology (Ausubel, F. M., Brent, R., Kingston, R. E., Moore, D. D., Seidman, J. G., Smith, J. A. and White, T. J., Eds.), pp. 13.7.1-13.7.2, John Wiley and Sons, New York), and the transformed yeast were then plated on a synthetic medium containing glucose as the sole carbon source (but lacking uracil) and grown for 4 d at 25° C. Isolated colonies, corresponding to each construct, were then replica streaked onto SGI, N3 and SLI media and grown for 3, 5 or 7 d, respectively, at 25° C or 37° C.
SGI and SLI synthetic media contain, respectively, 20 g/liter glucose (G) or 20 g/liter galactose (L) in 1 g/liter bactocasamino acids (Difco), 6.7 g/liter yeast nitrogen base without amino acid (Difco), and 40 mg/liter DL-tryptophan.
The three pYeDP60/T. canadensis GGPP synthase constructs were introduced into and expressed in ANY119, an S. cerevisiae mutant that is defective for the β-subunit of type II geranylgeranyltransferase. […]
In data set [3] the test system is E. coli. The data set is described as follows: Expression under a strong constitutive promoter in E. coli (vector pYPGE15). The data set is classed as cell-based. How it is done: (§1) The toxicity of the constitutively expressed, recombinant GGPP synthase gene in yeast and in E. coli parallels the in vitro activity of the enzyme expressed in the truncation series. […] This toxicity is not observed when the corresponding transformed yeast are grown on glucose or glycerol (uninduced condition), but only when the gene is actively expressed by growth under inducing conditions with galactose as the carbon source. The overexpression of this gene to produce a functional GGPP synthase probably interferes with metabolism by depleting intracellular pools of FPP, via diversion to GGPP, and thus limiting sterol biosynthesis. […] The vector used in these E. coli transformation experiments was pYPGE15, the plasmid derived from λPG15.

In data set [4] the test system is yeast strain (INVSc1). The data set is described as follows: Growth/toxicity of constructs in yeast under galactose induction. The following applies: for growth of INVSc1 transformants on SLI medium: 30° C., 3 d, galactose (induced); for toxicity of the expressed recombinant GGPP synthase gene to host cells: inducing conditions, galactose as carbon source. The format is cell-based, S. cerevisiae. On the procedure:
To test the expression of GGPP synthase on galactose as carbon source, each construct was transformed into a yeast strain (INVSc1) that metabolizes this sugar efficiently.
as §1

B1: Tr^295: 5'-truncated T. canadensis GGPP synthase of SEQ ID NO:2 beginning at nucleotide 295 (F^99), lacking the transit peptide (protein)
chain: FDFNEYMKSKAVAVDAALDKAIPLEYPEKIHESMRYSLLAGGKRVRPALCIAACELVGGSQDLAMPTACAMEMIHTMSLIHDDLPCMDNDDFRRGKPTNHKVFGEDTAVLAGDALLSFAFEHIAVATSKTVPSDRTLRVISELGKTIGSQGLVGGQVVDITSEGDANVDLKTLEWIHIHKTAVLLECSVVSGGILGGATEDEIARIRRYARCVGLLFQVVDDILDVTKSSEELGKTAGKDLLTDKATYPKLMGLEKAKEFAAELATRAKEELSSFDQIKAAPLLGLADYIAFRQN
Turning to B1, the “total radioactivity of solvolysis products coinciding with geranylgeraniol and geranyllinalool standards” value in data set [1] (reversed phase TLC, [4-^14 C]IPP plus FPP as substrates) was 97%. The “prenyltransferase activity of enzyme preparation” value in data set [1] (yeast extracts, [4-^14 C]IPP and FPP) is listed as “highly active”. Further, in data set [2], the “growth at restrictive temperature (rescue of bet2-1 mutant)” value is “showed growth”. The “growth of E. coli expressing the clone” value in data set [3] was “the cells will not grow”. Moreover, in data set [4], the “growth of INVSc1 transformants on SLI medium” value was “did not grow at all” and the “toxicity of the expressed recombinant GGPP synthase gene to host cells” value is listed as “extremely toxic”.

B2: full-length: full-length T. canadensis GGPP synthase preprotein (SEQ ID NO:2) encoded by SEQ ID NO:1 (protein)
chain: MAYTAMAAGTQSLQLRTVASYQECNSMRSCFKLTPFKSFHGVNFNVPSLGAANCEIMGHLKLGSLPYKQCSVSSKSTKTMAQLVDLAETEKAEGKDIEFDFNEYMKSKAVAVDAALDKAIPLEYPEKIHESMRYSLLAGGKRVRPALCIAACELVGGSQDLAMPTACAMEMIHTMSLIHDDLPCMDNDDFRRGKPTNHKVFGEDTAVLAGDALLSFAFEHIAVATSKTVPSDRTLRVISELGKTIGSQGLVGGQVVDITSEGDANVDLKTLEWIHIHKTAVLLECSVVSGGILGGATEDEIARIRRYARCVGLLFQVVDDILDVTKSSEELGKTAGKDLLTDKATYPKLMGLEKAKEFAAELATRAKEELSSFDQIKAAPLLGLADYIAFRQN
As for B2, in data set [1] (compared on a protein basis, yeast extracts), the “activity relative to the truncated form expressed from Tr^295” value is 12%. In addition, the “growth at restrictive temperature (rescue of bet2-1 mutant)” value in data set [2] is reported as “showed growth”. Also, the “growth of E. coli expressing the clone” value in data set [3] is reported as “the cells will not grow”. In addition, in data set [4], the “growth of INVSc1 transformants on SLI medium” value is given as “scanty growth” and the “toxicity of the expressed recombinant GGPP synthase gene to host cells” value is on record as “noticeable reduction in growth”.
